From the nanobody polyreactivity screen of Harvey et al. (2022) come the findings set out here.

This series is described as follows: yeast display, Sf9 membrane polyspecificity reagent, FACS + sequencing; frameworks hold sequencing errors. The method in brief: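 After 36–48 hours of galactose induction, yeast (Saccharomyces cerevisiae BJ5465) displaying a synthetic nanobody library were stained at 4 °C for 1 hour with 10% biotinylated, detergent-solubilized Sf9 membrane reagent. Streptavidin microbeads enriched the stained cells before FACS sorting into low and high (top ~1%) gates on anti-HA and streptavidin fluorescence. Each clone's polyreactivity label reflects its gate of origin.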
In the case of “QVQLVESGVRLGQAGGSLRLSCAASGSIFLRYAMGWFRPAPGKERELVATISQRGSTYYADSVKGRFTISRDNAKNTVYLKKNSLKPEDTAVYYCNAVGRARTLGSNTYGYWGQGTQVTVSS”, the “polyreactivity (PSR sort gate)” value is reported as “high polyreactivity”. As for “QVQLVESGGGLVQAGGSLRLSCAASGSILPYYAMGWSRQAPGKERELVATITDGTDTYYADSVKGRFTISRDNAKNTVYLQMNSLKPEDTAVYYCKADGYVYYMHEDYWGQGTQVTVSS”, the “polyreactivity (PSR sort gate)” value is recorded as “low polyreactivity”. With “QVQLVESGGGLVQAGGSLRLSCAASGITFTKYVMRWYRQAPGKERELVATIRWGASSTHYADSVKGRFTISRDNAKNTVYLQMNSLKPEDTAVYYCNADGWYGAVYWWFYGFDYWGQGTQVTVSS” the entry was “low polyreactivity”.

For the sequence “QVQLQESGGSLVQAGGSLRLSCAASGNILVLPHGLVSPGAERELVATITGGSITYYADSVKGRFTISRDNAKNTVYLQMNSLKPGDTDVYYCAVINIYHRPHPYWGQGTLVTVSS”, the “polyreactivity (PSR sort gate)” value is reported as “high polyreactivity”. As to “QVQLVESGGGLVQAGGSLRLSCAASGFTFYYNAMGWYRQAPGKERELVAAITWDGGRTYYADSVKGRYTISRDNAKNTVYLQMNSLKTVDTAVYYCAAVEYSEHWDGYSWGEYYYWGQGTQVTVSS”, the “polyreactivity (PSR sort gate)” value is “high polyreactivity”. Then “QVQLVESGGGLVQAAGSLRLSCASSGSIIFYYAMGWYRQAPGNEREFVAAITRSGVRTYYADSVKGRFTISRDNAKNTVYLQMNSLIPEDTAVYYCIAEAYPYWYRGASREYDYWGQGTQVTVSS”, with “low polyreactivity”; and “QVQLVESGGGLVQAGGSLRLSCAASGSIFSFYTMGWYRQAPGKERELVASSTTYADSVKGRFTISRDNAKNTVYLQMNSLKPEDTAVYYCAAEYYSSITGWYYYWGQGTQVTVSS”, with “low polyreactivity”; and “QVQLVESGGGLVQAGGSLRLSCAASGLTFGDYSMGWYRQAPGKERELVAAITWSGASTYYADSVKGRFTISRDNGMNTVYLQMNSLKPEDTAVYYCAAERTPSYRAYDYWGQGTQVTVSS”, with “low polyreactivity”. On to “QVQLVESGGGLVQAGGSLRLSCAASGRIFRRYAMGWYRQAPGKERELVAAISWSGGATYYADSVKGRFTISRDNAKNTVYLQMNSLKPEDTAVYYCAALRYQQCRAYDYWGQGTLVTVSS”, for which the “polyreactivity (PSR sort gate)” value was “high polyreactivity”. For the sequence “QVQLVESGGGLVQAGGSLRLSCAASGRTFYPYAMGWYRQAPGKERELVARISRGGRTNYADSVKGRFTISRDNAKNTVYLQMNSLKPEDTAVYYCAADYYGSYFITEDYWGQGTQVTVSS”, the “polyreactivity (PSR sort gate)” value was “low polyreactivity”. Then “QVQLVESGGGLVQAGGSLRLSCAASGSIFLKYAMGWYRQAPGKERELVAAISSRGGSTYYADSVKGRFTISRDNAKNTVYLQMNSLKPEDTAVYYCAAKRWPGTDGYWGQGTQVTVSS”, with “high polyreactivity”; and “QVQLVESGGGLDQAGGSLRLSCAASGSTLPVYALGWNRQAPGKERELVAAITDSGGNTYYADSVKGRFTISRDNAKNTVYLQMNSLKPEDTAVYYCNADAQSTSGYGYYAPYWMDYWGQGTQVTVSS”, with “low polyreactivity”.

As for “QVQLVESGGGLVQAGGSLRLSCAASGRTFWNYSMGWYRQAPGKERELVAVIRFSDGSTYYADSVKGRFTISRDNAKNTVYLQMNSLKPEDTAVYYCAADYSLYGWWFRNDYWGQGTQVTVSS”, the “polyreactivity (PSR sort gate)” value is reported as “low polyreactivity”. “QVQLVESGVGLVQAGGSHRLSCAASGRTLWYYAIGWYRQAPGKERELVASIRRRTGSTYYAESVKGRFTISRDNAKNTVYLQLNSLKPEDTAVYYCAAKGFLRNGYWGQGTQVTVSS”: the “polyreactivity (PSR sort gate)” value is “high polyreactivity”. Then “QVQLVESGGGLVQAGGSLRLSCAASGSIFSNYAMGGYRQAPGKERELVAAISRNGGSTSYADSVKGRFTISRDNAKNTVYLQMNSLKPEDTAVYYCAKRYKTAQYYYWGQGTQVTVSS”, with “high polyreactivity”; and “QVQLVESGGGLVQAGGSLRLSCAASGSIFVVYAMGWYRQAPGKERELVAAISWGIGSTYYADSVKGRFTISRDNAKYTVYLQMNSLKPEDTAVYYCAAETDIVLYDYWGQGTQVTVSS”, with “low polyreactivity”.

In the case of “QVQLVESGGGLVQAGGSLRLSCAASGFTFYRNAMGWYRQAPGKEREVVAAISISGGSTYYADSVKGRFTISRDNAKNTVYLQMNSLKPEDTAVYYCAAYYYRDRYSRVKVTYWGLGTQVTVSS”, the “polyreactivity (PSR sort gate)” value is listed as “high polyreactivity”. Then “QVQLVESGGGLVQAGGSLRLSCAASGSTFQGYALRWYRQAPGKERELVAAITKRSGRTYYADSVKGRFTISRDNAKNTVYLQMNSLKPEDTAVYYCAKVTSYSEYDYWGQGTQVTVSS”, with “high polyreactivity”. Take “QVQLVESGGGLVQAGGSLRLICAASGLIFYKYAMGWYRQAPGKERELVAAITSGGSTNYADSVKGRFTISRDNAKNSVYLQMNSLKPEVTAVYYCNADYNHYLVVRWWYPPVDYWGQGSQVTVSS”: the “polyreactivity (PSR sort gate)” value is given as “low polyreactivity”. With “QVQLVESGGGLVHAGGSLRLSCAASGRTFPTNAMGWYRQSPGKDRELVAAISWSGGGTYYADSVKGRFTISRDNAKNTIYLQMNSLKPEDTAVYYCAADDTPDTIYGSDYWGQGTQVTVSS” the entry was “low polyreactivity”; with “QVQLVESGGGLVQAGGSLRLTCAASGIILVAYPMGWYRQAPGKERELVAAITTSGTSTYYADSVKGRFTISRDNAKNTGYVQMNSLKPEDTAVYYCAVRQRYGPARYDYWGQGTQVTVSS”, “high polyreactivity”; with “QVQLVESGGGLVQAGGSLRLSCAASGRIFSKYAMGWYRQAPGKERELVAAISNGGSTNYADTVKGRFTISRDNAKNTVYLQMNSLKPEDTAVYYCAKQDRVLYGGYDSWGQGTQVTVSS”, “low polyreactivity”. Then “QVQLVESGGGLVQAGGSLRLSCAASGSIFVSNAMGWYRQAPGKERELVASISQDGGSTYYADSVKGRFTISRDNAKNTVYLQMNSLKPEDTADYYCAAKAEYYYYNGGTTYLVRYYYWGQGTQVTVSS”, with “low polyreactivity”. Then “QVQLVESGGGLVQAGGSLRLSCAASGRIFPYYAMGWYRQAPGKERELVATITSGGSTYYADSVKGRFTISRDNAKNTVYLQMNSLKPEDTAVYYCAARYPSIYFYRYDYWGQGNQVTVSS”, with “high polyreactivity”; and “QVQLVESGGGIVQAGGSLRLSCAASGRIFGIYERGWLRQAPGKEREMVAGITRGDRTYADSVKGRFTISRDNAKNTVYLQMNSLKPVDTAVYYCNADVYPYKLALPAGMGYWGQGTQVTVSS”, with “high polyreactivity”; and “QVQLVESGGGLVQAGGSLRLSCAASGRNFYAYAMGWYRQAPGKERELVAGITYSGSSTYYADSVKGRFTISRDNAKNTVYLQMNSLKPEDTAVYYCAADLTRVLRYNYWGQGTQVTVSS”, with “low polyreactivity”. As to “QVQLVESGGGLVQAGGSLLLSCAAARIIFKYNAMGWYRQAPGKDRELVARITARGGRTNYADSVKGRFTISRDNAKHTVYLQMNSLKPEDTAVYYCAKKLRGWHTIITDYDYWGQGTQVTVSS”, the “polyreactivity (PSR sort gate)” value is reported as “low polyreactivity”. For “QVQLVESGGGLVQAGGSLRLSCAASGSTFGYYSMGWYRQAPGKERELVAAIRYSGGTTYYADSVKGRYTISRDNAKNTVYLQMNSLKPEDTAVYYCAAVYTSGYYYWGQGTQVTVSS”, the “polyreactivity (PSR sort gate)” value is “high polyreactivity”. With “QVQLVESGGGLVQAGGSLRLSCAASGFTFERNTMGWYRQAPGKERELVATITRRGTSTYYADSVKGRFTISRDNAKNTVYLQMNSLKPEDTAVYYCARGQYSHRSQAGMDYWGQGTQVTVSS” the entry was “high polyreactivity”; with “QVQLVESGGGLVQAGGSLRLSCAASGFTFGHYAMGWYRQAPGKERELVAAISIDGGRTYYADSVKGRFTISRDNAKNTVYLQMNSLKPEDTAVYYCAAAVAGRKMGYWGQGTQVTVSS”, “high polyreactivity”. With “QVQLVESGGGLVQAGGSLRLSCAASGITFFENAMGWYRQAPGKERELVAAISYSGGNTYADSVKGRFTISRDNAKNTVYLQMNSLKPEDTAVYYCNADYAGWGEYDYWGQGTQVTVSS” the entry was “low polyreactivity”; with “HVQLVESGGGLVQAGGSLRLSCAASGSTFSGYAMGWYRQAPGKERELVAAISSSGGSTYYADSVKGRFTISRDNAKNTVYLQMNSLKPEDTAVYYCNADEYRGTSTEFEYWGQGTQVTVSS”, “high polyreactivity”.

“HVQLVESGGGLVQAGGSLRLSCAASGSTCRYYARGWYRQAPGKERELGAAISGRGARTYYADSVKGRFTISRDNAKNTVYLQMNSLKPEDTAVYYCAAVGYRYRHSRYYWGQGTQVTVSS”: the “polyreactivity (PSR sort gate)” value is listed as “high polyreactivity”.

With “QVQLVESGGGLVQAGGSLRLSCAASGLIFRRYAMGWYRQAPGKERELVATINSGGSTNYADSVKGRFTISRDNAKNTVYLQMNSLKPEDTAVYYCAAKKFRRFTKWYDYWGQGTQVTVSS”, the “polyreactivity (PSR sort gate)” value was “high polyreactivity”. For the sequence “QFQLVESGGGLVQAGCSLRLSCAASGLTVGSNTMGWDRQAPGKERELVAAITSNGGSTYYADSVKGRFTISRDNAKNTVYLQMNSLIPEDTAVYYCAADDRGLISRRGYFYLSYDYWGQGTQVTVSA”, the “polyreactivity (PSR sort gate)” value was “low polyreactivity”. With “QVQLVESGGGLVQAGGSLRLSCAASGFTFRKYVMGWYRQAPGKERELVAGISRSGSRTYYADSVKGRFTISRDNAKNTVYLQMNSLKPEDTAVYYCAASRYGKNGKYHYWGQGTQVTVSS” the entry was “high polyreactivity”. With “QVQRVESGGGLVQAGGSLRLSCAASGSIFGPYAMVWYRQAPGKERELVAAITWSVGSTYYADSVKGRFTISRDNAKTTVYLQMNSLKPEDTAVYYCNAGVLGVYTSYNGDDYWGQGTQVTVSS” the entry was “low polyreactivity”; with “QVQLVESGGGLVQAGGSLRLSCAASGRIFIRYAMGWYRQAPGKERELVAVITTGGSTNADSVKGRFTISRDNAKNTVYLQMNSVKPEDTAVYYCNAKVRVYTRGYFRYWYDYWGQGTQVTVSS”, “high polyreactivity”.

With “QVQLVESGGGLVQAGGSLRLSCAASGRTFTYYSMGWYRQAPGKERELVAAISSGGRTNYADSVKGRFTISRDNAKNTVYLQMNSLKPEDTAVYYCAADGTTFRNRYYFHRMDFWGQGTQVTVSS”, the “polyreactivity (PSR sort gate)” value is given as “high polyreactivity”. On to “QVQLQESGGGLVQAGGSLRLSCAASGTISPLPAMGWYRQAPGKEREFVAGIDTGAITNYADSVKGRFTISRDNAKNTVYLQMNSLKPEDTAVYYCAADLFLDGSSQYAPNWWPDGWNTYRLLGGYWGQGTQVTVSS”, for which the “polyreactivity (PSR sort gate)” value is “low polyreactivity”.
